Source: patent US20060014669A1

Molecular target: VEGF
Assay: cell-based or functional assay

Substance | inhibition of VEGF-induced HUVEC proliferation in vitro, IC50
Murine Flk1-Fc (murine Flk1 ectodomain fused to murine IgG2a Fc fragment, adenovirus-expressed) (from UniProt P35918 20-762) (Fc fusion) | 0.1 µg/mL
Murine Flt1(1-3) soluble ectodomain with C-terminal 6xHis tag (adenovirus-expressed) (from UniProt P35969 23-328) (receptor) | 0.005 µg/mL
